Data on 41 sequences can be found in the nanobody polyreactivity screen of Harvey et al. (2022).

A short description of this series: yeast display, Sf9 membrane polyspecificity reagent, FACS + sequencing; frameworks hold sequencing errors. Put shortly:
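A nanobody's polyreactivity label depends on the gate it was sorted from. Yeast display cells were stained with 10% biotinylated, detergent-solubilized Sf9 membrane reagent for 1 hour at 4 °C, enriched on streptavidin microbeads and sorted by FACS. The low and high (top ~1%) gates were set on anti-HA fluorescence for expression and streptavidin fluorescence for reagent binding.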
Consider “QVQLVDSGGGLVQAGGSLLLSCAASGFTFTIYAMGWNRQAPGKERELVATISGRAGRTYYADSVKGRFTISRDNAKNTVYLQMNSLKPEDTAVYYCNAGQWRYPGLYYYWGQGTQVTVSS”, for which the “polyreactivity (PSR sort gate)” value is listed as “high polyreactivity”. “QVQLVDSGGGLVQAGGSLLLSCAASGHTLYRNAMGWYRQAPGKERELVAAITSRGGSTFYADSVKGRFTISRDNAKNSVYLQMNCLQPEDTAVYYCNTARGTAPAHDYWGQGTQVTVSS”: the “polyreactivity (PSR sort gate)” value is on record as “low polyreactivity”. The result for “QVQLVDSGGGLVQAGGSLPLICADAGSTFNSYAMGRYRQAPGKKRELVAAIRWIGDSTYADSVKGRFTISRDNATNTVYLQMNSLKPVDTAVYYCAATDVSWGVDYWGQCTQVTVSS” reads “low polyreactivity”. The result for “QVQLVDSGGGLVQAGGSLRLICAASGLIFYKYAMGWYRQAPGKERELVASISTGGGSTYYADSVKGRFTISRDNAKNTVYLQMNSLQPEDTAVYYCAARWWRRFRGSHSLYDYWGQGTEVTVSS” reads “high polyreactivity”; that for “QVQLVDSGGGLVQAGGSLRLRCAASGRTFTPYAMGWYRQAPGQERELVATISSGTSTNYADSVKGRFTISRDNAKNTVYLQMNSLKPEDTAVYDCAADGYTYKFDYWGQGTQVTVSS”, “low polyreactivity”; that for “QVQLVDSGGGLVQAGGSLRLRCADSGSIFRDNAMGWYRQAPGKERELVADINYRDGDTFYADSVKGRFTISRDNAKNTVYLLMNSLKPEDNAVYYCAAEWDYPWWRIVAVYGYEYWGQGTQVTVSS”, “low polyreactivity”. The result for “QVQLVDSGGGLVQAGGSLRLSAASGSTLSGNTMGWYRQAPGKERELVAAINDSGGSTYYADSVKGRFTISRDNAKNTVYLQMNSLKPEDTAVYYCAAETGYAFDYWGQGTQVTVSS” reads “low polyreactivity”; that for “QVQLVDSGGGLVQAGGSLRLSCAASGFIFGYYAMGWYRPAPGKERELVAAISQSTGSTYYADSVKGRFTISRDNAKNTVYLQMNSLKPEDTAVYYCNAEGPEFTTWGYVYWDWGYGYWGQGTQVTVSS”, “low polyreactivity”. With “QVQLVDSGGGLVQAGGSLRLSCAASGFIFPYYAMGWYRQAPGKERELVAAITRGGRTYYADSVKGRFTISRDNAKNTVYLQMNSLKPEDTAVYYCAARAGLDGEMDYWGQGTQVTVSS”, the “polyreactivity (PSR sort gate)” value was “high polyreactivity”. “QVQLVDSGGGLVQAGGSLRLSCAASGFIFSAYTMGWYRQAPGKERELVAAISGSGVGTYYADSVKGRFTISRDNAKNTVYLQMNSLKPEDTAVYYCNAADYTAYYWEYYYWGQGTQVTVSS”: the “polyreactivity (PSR sort gate)” value is “low polyreactivity”.

“QVQLVDSGGGLVQAGGSLRLSCAASGFKFGTYAMGWYRQAPGKERELVAGISRRSGSTIYADSVKGRFTISRDNAKNTVYLQMNSLKPEDTAVYYCNVDRPDATWSWWEYGYWGQGTQVTVSS”: the “polyreactivity (PSR sort gate)” value is “high polyreactivity”. The result for “QVQLVDSGGGLVQAGGSLRLSCAASGFTFRYYAMGWYRKAPGNERELVAGISWSGSRTYYADSVKGRFTISRDNAKNTVYLQMNSLKPEDTAVYFCAKVNSYGPVPDRYDYWGQGTQVTVSS” reads “high polyreactivity”; that for “QVQLVDSGGGLVQAGGSLRLSCAASGFTFYRYAMGWYRPAPGKERELVAGITGSGGNTYYADSVKGRFTISRDNAKNTVYLQMNSLKPEDTAVYYCAAEDYVGWYNFEYWGQGNQVTVSS”, “high polyreactivity”; that for “QVQLVDSGGGLVQAGGSLRLSCAASGGTFDWYTMGWYRQAPGKERELVADITSGGSTYYADSVKGRFTISRDNAKNTVYLQMNSLKPEDTAVCYCATTVYSTSGYPYDYWGQGTQVTVSS”, “high polyreactivity”. In the case of “QVQLVDSGGGLVQAGGSLRLSCAASGITFRYYAMGWYRQAPGKERELVAAITRGGRTNYADSVKGRFTISRDNAKNTVYLQKNSLKPEETAVYYCATGRDSNFGNSYYYWGQGTQVTVSS”, the “polyreactivity (PSR sort gate)” value is “high polyreactivity”. The result for “QVQLVDSGGGLVQAGGSLRLSCAASGLTFSTYAKGWYRQAPGTERELVAVIRRTGSTYYADSVKGRFTISRDNAMNTVYLHMNGLKPEDNAVYYFATARRHVSGYDFWGQCTQVTVSS” reads “high polyreactivity”; that for “QVQLVDSGGGLVQAGGSLRLSCAASGRIFGYNAMGWSRQAPGKERELVAAITSDARTNYADSVKGRFTISRDNAKNTVYLQMISLKPEDTAVYYCAARRYPPRMDYWGHGTQVTVSS”, “high polyreactivity”; that for “QVQLVDSGGGLVQAGGSLRLSCAASGRIFPYYAMGWYRQAPGKERELVAAISSGGSTKYADSVKGRFTISRDNAKNTVYLQMNSLKPEDTAVYYCAKDPFPWALFDYWGQGTLVTVSS”, “low polyreactivity”. The result for “QVQLVDSGGGLVQAGGSLRLSCAASGRIFRWNAMGWYRQAPGKERELVAVISSGGSTNYADSVKGRFTISRDNAKNTVYLQMNSLKPEDTAVYYCAKGLIRYSHLDYWGQGTQVTVSS” reads “low polyreactivity”; that for “QVQLVDSGGGLVQAGGSLRLSCAASGRIFYTNAMGWYIQEPGKERELVAAIDYSDSTTYYADSVKGRFTISRDNAKNTVYLQMNSLKPEDTAVYYCAAESYLYTVTFEYWGQGTQVTVSS”, “high polyreactivity”. On to “QVQLVDSGGGLVQAGGSLRLSCAASGRILYANAMGWYRQAPGKERELVAAIRYSDDSTYYADSVKGRFTISRDNAKNTVYLHMNSLKPEDTAVYYCNADYLRWDIWYWHGYDYWGQGTQVTVSS”, for which the “polyreactivity (PSR sort gate)” value was “high polyreactivity”. For “QVQLVDSGGGLVQAGGSLRLSCAASGRIVELYAMGGYRQAPGKEREMVAVITNGGSTYYADSVKGRFTISRDNAKNTVYLQMNSLKPEDTAFYFCNARRGYNRVGGSYGYWGQGTQVTVSS”, the “polyreactivity (PSR sort gate)” value is “low polyreactivity”. The result for “QVQLVDSGGGLVQAGGSLRLSCAASGRNFSPYTMGWYRQAPGKVREMVAAIRSGDGRTYYADSVKGRFTISRDNAKNTVYLQMNSLKQEDTAVYYCAARRGKVYVSGNGYWGQGTQVTVSS” reads “high polyreactivity”.

With “QVQLVDSGGGLVQAGGSLRLSCAASGRTFGRYTMGWYRQAPGKERELVAAITYSGGSTYYADSVKGRFTISRDNAKNTVYLQMNSLKPEDTAVYYCAAEWVYDWYRYGYWGQGTQVTVSS”, the “polyreactivity (PSR sort gate)” value is “low polyreactivity”.

In the case of “QVQLVDSGGGLVQAGGSLRLSCAASGRTFGVNTMGWYRQAPGKERELVAAISWSGGRTYYADSVKGRFTISRDNAKNTVYLQMNSLKPEDTAVYYCAASWYSRASLYDYWGQGTQVTVSS”, the “polyreactivity (PSR sort gate)” value is recorded as “high polyreactivity”. The result for “QVQLVDSGGGLVQAGGSLRLSCAASGRTFPFYAKGLSRQATGKERELVAVITWRGSNTFADSVKGRFTISRDNAKNTVFLQMNSLKPEDTAVYYCAADAWRSYGYRAYDYWGQGTQVTVSS” reads “high polyreactivity”.

For the sequence “QVQLVDSGGGLVQAGGSLRLSCAASGRTFRGNVMGWYRQAPGKEREFVAAITKSDGSTYYADSVKGRFTISRDNAKNTVYLQKNSLKPEDTAVYYCAARTARTGWPWFRYDYWGQGTQVTVSS”, the “polyreactivity (PSR sort gate)” value is “low polyreactivity”. The result for “QVQLVDSGGGLVQAGGSLRLSCAASGRTFSPYMGWYRQAPGKEREFVAAISKSGGRTYYADSVKGRFTISRDNAKNTVYVQMNSLKPEDTAVYYCAAGAWRGPYSGYYYWGQGTQVTVSS” reads “low polyreactivity”; that for “QVQLVDSGGGLVQAGGSLRLSCAASGRTFYYNTMGWYRQAPGKERELVAAITYRGGRTYYADSVKGRFTISRDNAKNTVYLQMNSLKPEDTAVYYCAADWRGPGRTYKINKYDYWGQGTQVTVSS”, “high polyreactivity”; that for “QVQLVDSGGGLVQAGGSLRLSCAASGRTISKYAMGWNRQAPVKERELVAAITGSGGSTHYADSVKGRFTISRDNAKNTVYLQMNSLKPEDSAVYYCAAVPRYQYGYWGQGTQVTVSS”, “low polyreactivity”. The result for “QVQLVDSGGGLVQAGGSLRLSCAASGRTSYYNTMGWYRQAPGKERELVAAITGRGDSTYYADSVKGRFTISRDNAKNTVYLQMNSLKPEDTAVYYCAADELHLLYRVSKFVDYNHWGQGTQVTVSS” reads “low polyreactivity”; that for “QVQLVDSGGGLVQAGGSLRLSCAASGSIFPSYAIGWYRQAPGKERELVATIGRGGTTNYADSVKGRFTISRDNAKNTVYLQMNSLKPEDTSVYYCNAERIWRYKYGYDYWGQGTQVTVSS”, “high polyreactivity”; that for “QVQLVDSGGGLVQAGGSLRLSCAASGSIFQQYAMGWYRQAPGKESELVAAISWGDGSTYYADSVKGRFPISRDNAKNTVYLQMNSLKPEDTAVYYCNAYASAPLWSLEDDYWGQGTQVTVSS”, “low polyreactivity”. The result for “QVQLVDSGGGLVQAGGSLRLSCAASGSIFQYYAMGWYRQAPGKEMELVAAITSVSSTSYADSVKGRFTISRDNAKNTVYLQMNSLKPEDTAVYYCDAAFRRGLLKMDYWGQGTQVTVSS” reads “low polyreactivity”.

As for “QVQLVDSGGGLVQAGGSLRLSCAASGSIFRGYAMGWYRPAPGKESGLVAAISRDGGSTYYADSVKGRFTISRDNAKNTVYLQMNSLKPEDTAVYYCAADYVAYATYGDGDYWGQGTQVTVSS”, the “polyreactivity (PSR sort gate)” value is “high polyreactivity”. The result for “QVQLVDSGGGLVQAGGSLRLSCAASGSIFRYNAMGWYREAPGKERVLVAAISWNGARTYYADSVKGRFTISRDNAKNTVYLQMNSLKPEDTAVYYCNAGTFTRRRGLDYWGQGTQVTGSS” reads “low polyreactivity”. The result for “QVQLVDSGGGLVQAGGSLRLSCAASGSIFSAYAMGWYRQAPGKERELVAAITFGGSTYYADSVKGRFTISRDNAKNTVYLQMNSLKPEDTAVYYCNAYYPFVGLYLGHDYWGQGTQVTVSS” reads “low polyreactivity”. The result for “QVQLVDSGGGLVQAGGSLRLSCAASGSIFVNNTMGWYRQAPGKERELVAAISSSGGSTYYADSVKGRFTISRDNAKNTVYLQMNSLKPEDTAVYYCAAVNGYQYPQYYYNGYDYWGQGTQVTVSS” reads “low polyreactivity”; that for “QVQLVDSGGGLVQAGGSLRLSCAASGSIFVTYAMGWSRQAPAKERELVAAITDRGGSTYADSVKGRFTISRDNAKNTVYLQMNSLKPEDTAVYYCAADPDLGDAYDYWGQGTQVTVSS”, “low polyreactivity”. On to “QVQLVDSGGGLVQAGGSLRLSCAASGSSVKTYAMGWYRQAPGKERELVASISYSGDTTYADSVKGRFTISRDNAKNSVYLQMNSLKPEDTAVYYCAAGWYYYYYSYQYWDYDYWGQGTQVTVSS”, for which the “polyreactivity (PSR sort gate)” value is “high polyreactivity”. The result for “QVQLVDSGGGLVQAGGSLRLSCAASGSTFRGYAMGWYRQSPGKERELVAAITGSAGSTYYADSVKGRFTISRDNAKNTVYLQMNSLKPEDTAVYYCAAATSYRRYYYIYNYWGQGTQVTVSS” reads “high polyreactivity”.
